First the molecules themselves.
B1: P1146_IXORI (other)
chain: GPDTKGDEESDENELFTVEYCGTNCTQLENGSWTPCSGNNGNCRCFHESDKTVGLCLSTEYTDFSEYPDPNSSEIIAAAPLPRERLIQ
B2: CXCL13_HUMAN (ligand)
chain: VLEVYYTSLRCRCVQESSVFIPRRFIDRIQILPRGNGCPRKEIIVWKKNKSIVCVDPQAEWIQRMMEVLRKRSSSTLPVPVFKRKIP
B3: P1086_IXORI (other)
chain: GSKGQRASQVSETSITAEFCDTSCTQGTDKTWSGCSGDCFCVHVGNDTEGRCMRWDGDYPSAEEEE
B4: P467_RHIPU (other)
chain: AEKSLDSDSSGEDYELWTQGCPFLVAENRTGFGTTVSCQHNCNGAIEKVPEGEPCYTIGEDGLGRMKLNLPYNCSLGECSGGVCVPNGRSDVCFKRTWEENNKAMA
B5: CXCL7_HUMAN (ligand)
chain: AELRCMCIKTTSGIHPKNIQSLEVIGKGTHCNQVEVIATLKDGRKICLDPDAPRIKKIVQKKLAGDESAD

One test deals with T1, CCL25_HUMAN (human, UniProt O15444 24-150).
T1 sequence: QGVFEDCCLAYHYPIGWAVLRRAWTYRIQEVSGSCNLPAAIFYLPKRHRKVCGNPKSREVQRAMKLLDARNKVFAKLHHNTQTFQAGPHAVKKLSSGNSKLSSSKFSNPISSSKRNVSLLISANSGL
In words: yeast surface display FACS.

The target of test [1] is T2, P1134_IXORI (Ixodes ricinus, UniProt A0A0K8RAI0 32-135).
T2 sequence: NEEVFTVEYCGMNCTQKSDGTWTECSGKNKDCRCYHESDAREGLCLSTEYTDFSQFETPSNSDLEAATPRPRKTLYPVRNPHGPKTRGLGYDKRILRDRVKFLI
In words: BLI. On the technique in general: In BLI a coated tip is dipped into the sample, and binding shifts an interference pattern.

In test [2] the target is T3, P1096_IXORI (Ixodes ricinus, UniProt A0A0K8RKE4 24-114).
T3 sequence: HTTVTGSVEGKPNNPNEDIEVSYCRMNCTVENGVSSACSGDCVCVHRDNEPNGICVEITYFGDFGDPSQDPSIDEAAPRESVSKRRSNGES
Kind of test: BLI.

For test [3], the target named is T4, P1080_IXORI (Ixodes ricinus, UniProt A0A090XBL6 20-118). In words: BLI.
Test [4] deals with T5, P1095_IXORI (Ixodes ricinus, UniProt A0A0K8RCE3 24-112).
T5 sequence: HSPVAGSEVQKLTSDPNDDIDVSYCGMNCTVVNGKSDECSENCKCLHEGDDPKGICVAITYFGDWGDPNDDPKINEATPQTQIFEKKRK
Kind of test: BLI.

The test “CXCL7_HUMAN” addresses B5. In words: BLI [Cont.].
A further test addresses T6, CXCL2_HUMAN (human, UniProt P19875 35-107).
T6 sequence: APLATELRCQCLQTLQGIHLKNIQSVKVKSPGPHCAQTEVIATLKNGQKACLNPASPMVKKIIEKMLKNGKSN
In words: BLI [Cont.].

In another test the target is T7, CXCL5_HUMAN (human, UniProt P42830 41-114).
T7 sequence: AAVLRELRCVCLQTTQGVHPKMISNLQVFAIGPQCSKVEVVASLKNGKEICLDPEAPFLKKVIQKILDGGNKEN
In words: BLI [Cont.].

For another test, the target named is T8, CXCL8_HUMAN (human, UniProt P10145 28-99).
T8 sequence: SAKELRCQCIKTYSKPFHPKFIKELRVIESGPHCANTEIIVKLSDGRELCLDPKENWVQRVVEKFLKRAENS
In words: BLI [Cont.].

The next test has as its target T9, CXCL4_HUMAN (human, UniProt P02776 32-101).
T9 sequence: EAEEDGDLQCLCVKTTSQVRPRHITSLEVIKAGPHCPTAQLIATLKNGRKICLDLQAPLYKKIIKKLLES
In words: BLI [Cont.].

The next test deals with T10, CXCL11_HUMAN (human, UniProt O14625 22-94).
T10 sequence: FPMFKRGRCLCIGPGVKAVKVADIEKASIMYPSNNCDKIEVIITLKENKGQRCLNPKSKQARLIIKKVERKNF
Kind of test: BLI.

In the next test the target is T11, CXCL14_HUMAN (human, UniProt O95715 35-111).
T11 sequence: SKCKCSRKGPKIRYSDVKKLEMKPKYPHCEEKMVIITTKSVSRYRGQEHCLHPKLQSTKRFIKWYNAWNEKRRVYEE
Kind of test: BLI.

The next test addresses CXCL12_HUMAN (human, UniProt P48061 22-89). In words: BLI.
In a further test the target is T12, CXCL10_HUMAN (human, UniProt P02778 22-98).
T12 sequence: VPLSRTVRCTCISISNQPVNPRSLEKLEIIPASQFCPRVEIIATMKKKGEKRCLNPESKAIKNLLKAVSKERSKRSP
Kind of test: yeast surface display FACS re-test.

Another test concerns the target T13, CCL8_HUMAN (human, UniProt P80075 24-99).
T13 sequence (looked up): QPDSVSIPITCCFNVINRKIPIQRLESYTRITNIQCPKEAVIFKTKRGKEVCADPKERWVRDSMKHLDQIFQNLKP
Kind of test: cell-based or functional assay.

For another test, the target named is T14, CCL5_HUMAN (human, UniProt P13501 24-91).
T14 sequence: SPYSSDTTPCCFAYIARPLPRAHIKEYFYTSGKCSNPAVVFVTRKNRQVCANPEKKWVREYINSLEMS
In words: cell-based or functional assay.

In another test the target is CCL2_HUMAN (human, UniProt P13500 24-99). Kind of test: cell-based or functional assay.
The target of a further test is CCL7_HUMAN (human, UniProt P80098 24-99). In words: cell-based or functional assay.
A further test addresses T15, P1128_IXORI (Ixodes ricinus, UniProt A0A0K8R6B3 19-90).
T15 sequence: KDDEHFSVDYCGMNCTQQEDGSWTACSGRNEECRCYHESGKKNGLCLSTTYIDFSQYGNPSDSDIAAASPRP
Kind of test: BLI [Cont.].

For test [5], the target named is T2, P1134_IXORI. Kind of test: BLI [Cont.].
The next test deals with T16, P1168_IXORI (Ixodes ricinus, UniProt A0A0K8RCU3 25-106).
T16 sequence: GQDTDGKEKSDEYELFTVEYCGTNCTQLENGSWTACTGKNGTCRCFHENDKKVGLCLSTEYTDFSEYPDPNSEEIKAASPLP
Kind of test: BLI [Cont.].

Test [6] has as its target T3, P1096_IXORI. In words: BLI [Cont.].
The target of a further test is T17, P1172_IXORI (Ixodes ricinus, UniProt V5I2G9 24-94).
T17 sequence: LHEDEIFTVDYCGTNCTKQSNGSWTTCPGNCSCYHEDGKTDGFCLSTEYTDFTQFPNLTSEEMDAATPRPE
In words: BLI [Cont.].

Another test has as its target T18, P1166_IXORI (Ixodes ricinus, UniProt A0A0K8RE99 25-110).
T18 sequence: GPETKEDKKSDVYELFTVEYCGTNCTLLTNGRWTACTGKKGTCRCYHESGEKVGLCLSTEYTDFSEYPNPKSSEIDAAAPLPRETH
Kind of test: BLI [Cont.].

The next test concerns the target T19, P1170_IXORI (Ixodes ricinus, UniProt A0A0K8RD51 29-102).
T19 sequence: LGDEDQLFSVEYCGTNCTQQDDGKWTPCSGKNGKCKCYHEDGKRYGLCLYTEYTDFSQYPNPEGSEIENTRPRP
In words: BLI [Cont.].

The next test deals with T20, P1174_IXORI (Ixodes ricinus, UniProt V5I3C5 28-104).
T20 sequence: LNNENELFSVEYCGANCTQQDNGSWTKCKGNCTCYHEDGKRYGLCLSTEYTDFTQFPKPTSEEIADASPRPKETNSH
In words: BLI [Cont.].

For test [7], the target named is T4, P1080_IXORI. In words: BLI [Cont.].
In the next test the target is T21, P1132_IXORI (Ixodes ricinus, UniProt V5GZ08 29-106).
T21 sequence: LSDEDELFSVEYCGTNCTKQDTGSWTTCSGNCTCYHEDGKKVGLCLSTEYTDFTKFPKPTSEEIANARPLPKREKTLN
In words: BLI [Cont.].

The next test addresses T22, P1127_IXORI (Ixodes ricinus, UniProt A0A0K8RJ67 29-108).
T22 sequence: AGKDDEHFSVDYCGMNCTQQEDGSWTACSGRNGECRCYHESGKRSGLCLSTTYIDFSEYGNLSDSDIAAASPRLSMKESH
In words: BLI [Cont.].

A further test has as its target T23, P1162_IXORI (Ixodes ricinus, UniProt A0A0K8RDJ1 29-99).
T23 sequence: T17 sequence with H2N, E3D, D4E, I6L, K18Q, S20P
In words: BLI [Cont.].

For a further test, the target named is T24, P1229_IXORI (Ixodes ricinus, UniProt A0A0K8R4R9 32-108).
T24 sequence: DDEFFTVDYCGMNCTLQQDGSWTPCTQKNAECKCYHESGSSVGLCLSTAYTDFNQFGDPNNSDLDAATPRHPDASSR
Kind of test: BLI [Cont.].

Test [8] concerns the target T5, P1095_IXORI. In words: BLI [Cont.].
The target in a further test is T25, P1156_IXORI (Ixodes ricinus, UniProt V5HBW0 29-108).
T25 sequence: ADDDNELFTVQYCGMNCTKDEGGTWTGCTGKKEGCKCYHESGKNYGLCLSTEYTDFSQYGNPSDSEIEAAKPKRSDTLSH
In words: BLI [Cont.) C].

Residue numbers refer to the chain shown, from its start.

T4 sequence (A0A090XBL6 20-118): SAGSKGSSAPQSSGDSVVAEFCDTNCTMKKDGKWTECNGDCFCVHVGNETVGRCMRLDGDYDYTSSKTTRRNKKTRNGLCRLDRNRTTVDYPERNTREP
Chain of CXCL12_HUMAN (P48061 22-89 limits assumed): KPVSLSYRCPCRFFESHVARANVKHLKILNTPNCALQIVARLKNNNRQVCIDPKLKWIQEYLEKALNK
Chain of CCL7_HUMAN (P80098 24-99 limits assumed): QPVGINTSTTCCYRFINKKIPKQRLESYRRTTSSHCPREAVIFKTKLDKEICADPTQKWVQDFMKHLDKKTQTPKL
Chain of CCL2_HUMAN (P13500 24-99 limits assumed): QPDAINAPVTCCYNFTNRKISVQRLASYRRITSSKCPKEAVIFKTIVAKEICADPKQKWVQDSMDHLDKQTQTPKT

Consider B1, for which, in the test with CCL25_HUMAN, the binding result is “binds”.
For B2, the binding result with P1134_IXORI [1], in the test with P1096_IXORI [2] and in the test with P1095_IXORI [4] was “no binding (tested: 300 nM)” throughout. In the test with P1080_IXORI [3], this molecule came in with a Kd of 1110 nM.
In the case of B3, the binding result with CXCL7_HUMAN, with CXCL8_HUMAN, with CXCL4_HUMAN, with CXCL11_HUMAN and with CXCL14_HUMAN was “no binding (tested: 300 nM)” each time. The Kd with CXCL2_HUMAN is 34 nM; in the test with CXCL5_HUMAN it was 26 nM; in the test with CXCL12_HUMAN, 142 nM. Also, the “% cells over threshold fluorescence” value with CXCL10_HUMAN was 63%.
Turning to B4, the “IC50, THP1 cell migration” value with CCL8_HUMAN came to 1.92 nM; with CCL5_HUMAN it was 8.74 nM; with CCL2_HUMAN, 3.26 nM; with CCL7_HUMAN, 11.1 nM.
In the case of B5, the binding result with P1128_IXORI, with P1134_IXORI [5], with P1168_IXORI, with P1096_IXORI [6], with P1172_IXORI and in the test with P1166_IXORI was “no binding (tested: 300 nM)” each time. Besides, the binding result with P1170_IXORI, with P1174_IXORI, with P1080_IXORI [7], with P1132_IXORI, with P1127_IXORI and with P1162_IXORI was “no binding (tested: 300 nM)” in each case. The binding result with P1229_IXORI, in the test with P1095_IXORI [8] and with P1156_IXORI was “no binding (tested: 300 nM)” throughout.

Broadly, the Kd is a measure of binding affinity in units of concentration.

For the origin of these results see US20240034757A1 (OXFORD UNIVERSITY INNOVATION, published 2024).
